Experimental data: paper PMC9482650, “Quantitative fragmentomics allow affinity mapping of interactomes” (Nature Communications, 2022)

What was measured:
Assay in all cases: holdup assay
Parameters in all cases: key: below the threshold = too weak to quantify, mostly under pKd 3.1 to 4
[1] = target: T1, LIN7B, Q9HAP6
T1 sequence (Q9HAP6 88-185, limits assumed, looked up): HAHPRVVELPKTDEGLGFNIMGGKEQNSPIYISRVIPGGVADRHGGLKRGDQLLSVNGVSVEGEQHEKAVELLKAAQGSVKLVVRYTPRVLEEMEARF

[2] = target: T2, FRMPD1, Q5SYB0
T2 sequence (Q5SYB0 52-145, limits assumed, looked up): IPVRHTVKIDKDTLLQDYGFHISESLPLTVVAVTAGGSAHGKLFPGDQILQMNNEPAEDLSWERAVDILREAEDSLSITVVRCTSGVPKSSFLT

[3] = target: DLG4_3, P78352
DLG4_3, P78352, sequence (P78352 306-403): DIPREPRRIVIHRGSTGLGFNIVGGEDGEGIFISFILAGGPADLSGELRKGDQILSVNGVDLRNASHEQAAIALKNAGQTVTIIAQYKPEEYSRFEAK

[4] = target: GRIP2_3, Q9C0E4
GRIP2_3, Q9C0E4, sequence (Q9C0E4 238-339): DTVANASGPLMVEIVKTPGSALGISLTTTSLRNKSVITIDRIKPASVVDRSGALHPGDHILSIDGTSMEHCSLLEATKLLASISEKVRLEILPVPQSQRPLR

[5] = target: PDLIM1, O00151
PDLIM1, O00151, sequence (O00151 1-87): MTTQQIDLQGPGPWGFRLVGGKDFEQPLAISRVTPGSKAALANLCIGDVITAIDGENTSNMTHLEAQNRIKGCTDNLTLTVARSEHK

[6] = target: NHERF4_1, Q86UT5-2
NHERF4_1, Q86UT5-2, sequence (Q86UT5 other isoform, or with tags, fused parts or gaps): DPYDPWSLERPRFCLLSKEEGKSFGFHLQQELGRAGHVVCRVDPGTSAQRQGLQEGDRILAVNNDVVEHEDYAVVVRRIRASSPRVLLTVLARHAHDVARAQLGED

[7] = target: T3, PCLO, Q9Y6V0
T3 sequence (Q9Y6V0 4491-4600, limits assumed, looked up): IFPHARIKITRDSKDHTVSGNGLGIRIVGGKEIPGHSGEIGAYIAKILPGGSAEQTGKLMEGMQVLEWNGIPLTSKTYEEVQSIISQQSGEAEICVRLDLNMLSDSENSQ

[8] = target: IL16_1, Q14005
IL16_1, Q14005, sequence (Q14005 210-306): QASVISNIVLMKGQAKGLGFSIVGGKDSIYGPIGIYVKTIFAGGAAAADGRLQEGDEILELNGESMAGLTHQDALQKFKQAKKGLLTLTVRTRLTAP

[9] = target: T4, DLG3_1, Q92796
T4 sequence (Q92796 125-227, limits assumed, looked up): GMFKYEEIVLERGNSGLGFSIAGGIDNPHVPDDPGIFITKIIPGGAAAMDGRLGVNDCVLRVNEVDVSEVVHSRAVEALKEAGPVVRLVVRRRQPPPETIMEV

[10] = target: SNX27, Q96L92
[11] = target: Inadl_4, Q8NI35
Inadl_4, Q8NI35, sequence (Q8NI35 547-651): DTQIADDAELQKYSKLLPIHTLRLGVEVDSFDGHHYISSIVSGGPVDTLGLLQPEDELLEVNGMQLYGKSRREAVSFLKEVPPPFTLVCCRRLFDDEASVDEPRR

[12] = target: DLG4_2, P78352
DLG4_2, P78352, sequence (P78352 155-259): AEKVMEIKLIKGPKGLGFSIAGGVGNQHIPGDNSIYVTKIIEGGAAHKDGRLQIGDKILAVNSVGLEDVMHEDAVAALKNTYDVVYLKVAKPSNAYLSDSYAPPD

[13] = target: HTRA2, O43464
HTRA2, O43464, sequence (O43464 355-458): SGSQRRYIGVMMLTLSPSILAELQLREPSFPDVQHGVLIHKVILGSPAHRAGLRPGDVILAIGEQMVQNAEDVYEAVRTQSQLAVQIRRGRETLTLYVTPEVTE

[14] = target: T5, SNTG2, Q9NY99
T5 sequence (Q9NY99 68-166, limits assumed, looked up): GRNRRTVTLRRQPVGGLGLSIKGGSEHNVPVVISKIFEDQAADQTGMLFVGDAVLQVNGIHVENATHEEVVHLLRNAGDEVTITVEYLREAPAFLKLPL

[15] = target: T6, MPP2, Q14168
T6 sequence (Q14168 180-250, limits assumed, looked up): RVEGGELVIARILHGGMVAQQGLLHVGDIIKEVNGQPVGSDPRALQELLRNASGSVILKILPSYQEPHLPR

[16] = target: T7, LNX2_2, Q8N448
T7 sequence (Q8N448 334-432, limits assumed, looked up): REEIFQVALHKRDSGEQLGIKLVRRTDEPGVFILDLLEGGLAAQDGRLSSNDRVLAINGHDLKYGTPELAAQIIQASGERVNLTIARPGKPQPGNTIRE

[17] = target: T8, SNTA1, Q13424
T8 sequence (Q13424 82-180, limits assumed, looked up): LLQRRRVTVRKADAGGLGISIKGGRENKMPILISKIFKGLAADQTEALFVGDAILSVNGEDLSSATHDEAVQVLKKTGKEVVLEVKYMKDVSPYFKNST

[18] = target: IL16_3, Q14005
IL16_3, Q14005, sequence (Q14005 1107-1207): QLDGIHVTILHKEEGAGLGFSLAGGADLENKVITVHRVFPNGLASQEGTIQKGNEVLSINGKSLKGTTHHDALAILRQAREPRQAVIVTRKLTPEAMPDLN

[19] = target: T9, TX1BP3, O14907
T9 sequence (O14907 10-122, limits assumed, looked up): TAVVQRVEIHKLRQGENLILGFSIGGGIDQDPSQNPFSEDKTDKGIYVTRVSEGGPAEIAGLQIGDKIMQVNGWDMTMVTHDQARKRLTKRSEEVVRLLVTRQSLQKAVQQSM

[20] = target: FRMPD2_1, Q68DX3
FRMPD2_1, Q68DX3, sequence (Q68DX3 770-861): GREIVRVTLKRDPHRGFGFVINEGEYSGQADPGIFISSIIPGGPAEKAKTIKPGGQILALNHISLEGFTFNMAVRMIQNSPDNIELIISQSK

[21] = target: T10, RHPN1, Q8TCX5
T10 sequence (Q8TCX5 508-602, limits assumed, looked up): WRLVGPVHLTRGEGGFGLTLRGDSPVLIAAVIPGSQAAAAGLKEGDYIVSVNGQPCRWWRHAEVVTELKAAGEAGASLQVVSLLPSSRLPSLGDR

[22] = target: T11, PDZRN3_1, Q9UPQ7
T11 sequence (Q9UPQ7 244-349, limits assumed, looked up): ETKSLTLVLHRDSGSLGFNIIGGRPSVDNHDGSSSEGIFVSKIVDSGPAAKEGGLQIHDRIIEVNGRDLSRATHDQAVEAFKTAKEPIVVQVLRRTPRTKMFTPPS

[23] = target: HTRA1, Q92743
HTRA1, Q92743, sequence (Q92743 360-477): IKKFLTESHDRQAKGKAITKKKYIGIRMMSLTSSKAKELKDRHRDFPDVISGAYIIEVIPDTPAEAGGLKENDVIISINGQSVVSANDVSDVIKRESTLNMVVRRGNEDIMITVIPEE

[24] = target: IL16_4, Q14005
IL16_4, Q14005, sequence (Q14005 1229-1329): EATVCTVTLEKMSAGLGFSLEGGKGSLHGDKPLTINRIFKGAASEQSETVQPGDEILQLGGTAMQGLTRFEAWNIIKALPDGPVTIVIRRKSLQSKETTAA

[25] = target: PARD3_3, Q8TEW0
PARD3_3, Q8TEW0, sequence (Q8TEW0 582-685): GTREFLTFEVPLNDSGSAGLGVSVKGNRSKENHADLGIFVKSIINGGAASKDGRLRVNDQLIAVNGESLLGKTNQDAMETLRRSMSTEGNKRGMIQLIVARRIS

[26] = target: LIMK2, P53671
LIMK2, P53671, sequence (P53671 143-248): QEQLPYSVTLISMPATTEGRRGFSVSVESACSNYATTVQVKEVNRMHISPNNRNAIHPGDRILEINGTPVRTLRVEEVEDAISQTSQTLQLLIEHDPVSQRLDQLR

[27] = target: Inadl_8, Q8NI35
Inadl_8, Q8NI35, sequence (Q8NI35 1425-1530): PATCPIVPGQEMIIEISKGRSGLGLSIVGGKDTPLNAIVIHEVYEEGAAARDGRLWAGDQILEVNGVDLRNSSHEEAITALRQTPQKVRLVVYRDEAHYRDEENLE

[28] = modified: phospho on S at position -3 from the C-terminal residue
[29] = plain residues with an end cap or a label only (N-terminal biotin on a linker: ado-ado)

B1: RPS6KA1_-3P, Q15418 (peptide)
chain: RRVRKLPSTTL
For B1, the pKd [1, 28] was “below the threshold”, the pKd [2, 28] was “below the threshold” and the pKd [3, 28] was “below the threshold”. The pKd [4, 28] was “below the threshold”, the pKd [5, 28] was “below the threshold” and the pKd [6, 28] was “below the threshold”. For the same binder, the pKd [7, 28] was “below the threshold”, the pKd [8, 28] was “below the threshold” and the pKd [9, 28] was “below the threshold”. The pKd [10, 28] was 4.1, the pKd [11, 28] was “below the threshold” and the pKd [12, 28] was “below the threshold”. For the same binder, the pKd [13, 28] was 3.75, the pKd [14, 28] was 4.76 and the pKd [15, 28] was “below the threshold”. The pKd [16, 28] was “below the threshold”, the pKd [17, 28] was 4.4 and the pKd [18, 28] was “below the threshold”. For the same binder, the pKd [19, 28] was “below the threshold”, the pKd [20, 28] was “below the threshold” and the pKd [21, 28] was 4.34. For the same binder, the pKd [22, 28] was “below the threshold”, the pKd [23, 28] was “below the threshold” and the pKd [24, 28] was “below the threshold”. The pKd [25, 28] was 3.76, the pKd [26, 28] was “below the threshold” and the pKd [27, 28] was “below the threshold”.

B2: TUBB4B, P68371 (peptide)
chain: FEEEAEEEVA
B2 was tested, and the pKd [1, 29] was 3.58, the pKd [2, 29] was “below the threshold” and the pKd [3, 29] was “below the threshold”. For the same binder, the pKd [4, 29] was “below the threshold”, the pKd [5, 29] was “below the threshold” and the pKd [6, 29] was “below the threshold”. The pKd [7, 29] was “below the threshold”, the pKd [8, 29] was “below the threshold” and the pKd [9, 29] was “below the threshold”. The pKd [10, 29] was “below the threshold”, the pKd [11, 29] was “below the threshold” and the pKd [12, 29] was “below the threshold”. The pKd [13, 29] was “below the threshold”, the pKd [14, 29] was “below the threshold” and the pKd [15, 29] was 3.77. The pKd [16, 29] was “below the threshold”, the pKd [17, 29] was “below the threshold” and the pKd [18, 29] was “below the threshold”. For the same binder, the pKd [19, 29] was 3.8, the pKd [20, 29] was “below the threshold” and the pKd [21, 29] was “below the threshold”. For the same binder, the pKd [22, 29] was “below the threshold”, the pKd [23, 29] was 3.58 and the pKd [24, 29] was “below the threshold”. The pKd [25, 29] was “below the threshold”, the pKd [26, 29] was “below the threshold” and the pKd [27, 29] was “below the threshold”.

B3: AMOTL1, Q8IY63 (peptide)
chain: PDGEMMEVLI
In the case of B3, the pKd [1, 29] is reported as 3.72, the pKd [2, 29] is reported as “below the threshold” and the pKd [3, 29] is reported as “below the threshold”. For the same binder, the pKd [4, 29] was “below the threshold”, the pKd [5, 29] was “below the threshold” and the pKd [6, 29] was “below the threshold”. The pKd [7, 29] was “below the threshold”, the pKd [8, 29] was “below the threshold” and the pKd [9, 29] was “below the threshold”. For the same binder, the pKd [10, 29] was “below the threshold”, the pKd [11, 29] was “below the threshold” and the pKd [12, 29] was “below the threshold”. For the same binder, the pKd [13, 29] was “below the threshold”, the pKd [14, 29] was “below the threshold” and the pKd [15, 29] was “below the threshold”. The pKd [16, 29] was 5.03, the pKd [17, 29] was “below the threshold” and the pKd [18, 29] was “below the threshold”. The pKd [19, 29] was “below the threshold”, the pKd [20, 29] was “below the threshold” and the pKd [21, 29] was “below the threshold”. The pKd [22, 29] was “below the threshold”, the pKd [23, 29] was 5.05 and the pKd [24, 29] was “below the threshold”. The pKd [25, 29] was 5.29, the pKd [26, 29] was “below the threshold” and the pKd [27, 29] was “below the threshold”.

B4: C3AR1, Q16581 (peptide)
chain: VISERNSTTV
For B4, the pKd [1, 29] was “below the threshold”, the pKd [2, 29] was “below the threshold” and the pKd [3, 29] was 3.54. For the same binder, the pKd [4, 29] was “below the threshold”, the pKd [5, 29] was “below the threshold” and the pKd [6, 29] was “below the threshold”. The pKd [7, 29] was “below the threshold”, the pKd [8, 29] was “below the threshold” and the pKd [9, 29] was 4.06. For the same binder, the pKd [10, 29] was 4.57, the pKd [11, 29] was “below the threshold” and the pKd [12, 29] was 4.65. The pKd [13, 29] was “below the threshold”, the pKd [14, 29] was 3.61 and the pKd [15, 29] was “below the threshold”. For the same binder, the pKd [16, 29] was 5.05, the pKd [17, 29] was 3.79 and the pKd [18, 29] was “below the threshold”. The pKd [19, 29] was “below the threshold”, the pKd [20, 29] was “below the threshold” and the pKd [21, 29] was 4.16. The pKd [22, 29] was “below the threshold”, the pKd [23, 29] was 4.2 and the pKd [24, 29] was “below the threshold”. The pKd [25, 29] was “below the threshold”, the pKd [26, 29] was “below the threshold” and the pKd [27, 29] was 3.54.
